# T1: synthetic peptide substrate SEVNLDAEFR containing the APP Swedish mutation
# T1 chain: SEVNLDAEFR
# Biological target: T1, synthetic peptide substrate SEVNLDAEFR …
protein,measurement,value
"Hu-Asp2 (human aspartyl protease 2), full-length, expressed from pcDNA3.1(+)Hygro/Hu-Asp2 (protein) TQHGIRLPLRSGLGGAPLGLRLPRETDEEPEEPGRRGSFVEMVDNLRGKSGQGYYVEMTVGSPPQTLNILVDTGSSNFAVGAAPHPFLHRYYQRQLSSTYRDLRKGVYVPYTQGKWEGELGTDLVSIPHGPNVTVRANIAAITESDKFFINGSNWEGILGLAYAEIARPDDSLEPFFDSLVKQTHVPNLFSLQLCGAGFPLNQSEVLASVGGSMIIGGIDHSLYTGSLWYTPIRREWYYEVIIVRVEINGQDLKMDCKEYNYDKSIVDSGTTNLRLPKKVFEAAVKSIKAASSTEKFPDGFWLGEQLVCWQAGTTPWNIFPVISLYLMGEVTNQSFRITILPQQYLRPVEDVATSQDDCYKFAISQSSTGTVMGAVIMEGFYVVFDRARKRIGFAVSACHVHDEFRTAAVEGPFVTLDMEDCGYNIPQTDESTLMTIAYVMAAICALFMLPLCLMVCQWRCLRCLRQQHDDFADDISLLK","hydrolysis of the synthetic peptide substrate, RP-HPLC with UV detection; products identified by Edman sequencing and MALDI-TOF","the two product peaks which eluted before the intact peptide substrate, were confirmed to have the sequence DAEFR and SEVNL"
same,β-secretase activity of chromatography fractions (peptide substrate assay),Fractions containing both Hu-Asp2 immunoreactivity and β-secretase activity were combined
